Experimental data reported in PMC2930322 (PLoS ONE, 2010).

Target: the molecule itself
Test: atomic force microscopy; assembled 1 h at 37°C in 25 mM Tris-HCl (pH 7.5) with NaCl (vimentin 0.1 mg/ml, 125 mM NaCl; K5/K14 0.1 mg/ml, 50-100 mM NaCl), adsorbed to mica, flushed with water, dried, imaged in air in acoustic mode

B1: Human K5/K14 heterodimers (complex)
chain 1: MSRQSSVSFRSGGSRSFSTASAITPSVSRTSFTSVSRSGGGGGGGFGRVSLAGACGVGGYGSRSLYNLGGSKRISISTSGGSFRNRFGAGAGGGYGFGGGAGSGFGFGGGAGGGFGLGGGAGFGGGFGGPGFPVCPPGGIQEVTVNQSLLTPLNLQIDPSIQRVRTEEREQIKTLNNKFASFIDKVRFLEQQNKVLDTKWTLLQEQGTKTVRQNLEPLFEQYINNLRRQLDSIVGERGRLDSELRNMQDLVEDFKNKYEDEINKRTTAENEFVMLKKDVDAAYMNKVELEAKVDALMDEINFMKMFFDAELSQMQTHVSDTSVVLSMDNNRNLDLDSIIAEVKAQYEEIANRSRTEAESWYQTKYEELQQTAGRHGDDLRNTKHEISEMNRMIQRLRAEIDNVKKQCANLQNAIADAEQRGELALKDARNKLAELEEALQKAKQDMARLLREYQELMNTKLALDVEIATYRKLLEGEECRLSGEGVGPVNISVVTSSVSSGYGSGSGYGGGLGGGLGGGLGGGLAGGSSGSYYSSSSGGVGLGGGLSVGGSGFSASSGRGLGVGFGSGGGSSSSVKFVSTTSSSRKSFKS
chain 2: MTTCSRQFTSSSSMKGSCGIGGGIGGGSSRISSVLAGGSCRAPSTYGGGLSVSSSRFSSGGACGLGGGYGGGFSSSSSSFGSGFGGGYGGGLGAGLGGGFGGGFAGGDGLLVGSEKVTMQNLNDRLASYLDKVRALEEANADLEVKIRDWYQRQRPAEIKDYSPYFKTIEDLRNKILTATVDNANVLLQIDNARLAADDFRTKYETELNLRMSVEADINGLRRVLDELTLARADLEMQIESLKEELAYLKKNHEEEMNALRGQVGGDVNVEMDAAPGVDLSRILNEMRDQYEKMAEKNRKDAEEWFFTKTEELNREVATNSELVQSGKSEISELRRTMQNLEIELQSQLSMKASLENSLEETKGRYCMQLAQIQEMIGSVEEQLAQLRCEMEQQNQEYKILLDVKTRLEQEIATYRRLLEGEDAHLSSSQFSSGSQSSRDVTSSSRQIRTKVMDVHDGKVVSTHEQVLRTKN
notes: keratin K5 (keratin, type II cytoskeletal 5), human; keratin K14 (keratin, type I cytoskeletal 14), human; Named only as a heterodimer; the two chains are never tested against each other or one by one; also called keratin K5/K14; K5/K14 subunits; source: expressed and purified as described [17]; stored in 6 M urea, dialysed into 2 mM Tris-HCl (pH 9), 1 mM DTT
binding result: binds
